Laboratory results from PMC8163982, “Partial agonism improves the anti-hyperglycaemic efficacy of an oxyntomodulin-derived GLP-1R/GCGR co-agonist” (Molecular Metabolism, 2021).
Where a SMILES comes first, the peptide text is derived from it. [ ]: non-standard residue; d: D form. Aib = CC(C)(N)C(=O)O

Assays:
[1] = target: GCGR-SmBiT (glucagon receptor) (UniProt P47871)
GCGR [2] = target: T1, GCGR (Homo sapiens, UniProt P47871); test: NanoBiT mini-Gs recruitment to GCGR-SmBiT in HEK293T cells; type: cell-based; set-up: expressed in transfected cells; host or cells: HEK293T
T1 sequence (P47871 26-477): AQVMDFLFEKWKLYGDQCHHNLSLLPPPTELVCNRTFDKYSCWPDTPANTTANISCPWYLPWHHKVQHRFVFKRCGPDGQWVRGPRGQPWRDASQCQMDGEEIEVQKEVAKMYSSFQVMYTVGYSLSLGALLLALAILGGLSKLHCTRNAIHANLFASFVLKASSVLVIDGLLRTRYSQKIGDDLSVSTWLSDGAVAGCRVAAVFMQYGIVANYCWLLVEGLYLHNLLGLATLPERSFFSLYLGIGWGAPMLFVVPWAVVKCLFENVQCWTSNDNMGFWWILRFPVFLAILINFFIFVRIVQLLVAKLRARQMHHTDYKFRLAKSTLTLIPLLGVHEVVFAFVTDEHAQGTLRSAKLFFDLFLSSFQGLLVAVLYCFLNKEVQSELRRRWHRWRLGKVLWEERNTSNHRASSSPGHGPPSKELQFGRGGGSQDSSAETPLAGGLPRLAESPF

GCGR [3] = target: T1, GCGR; test: NanoBiT β-arrestin-2 recruitment to GCGR-SmBiT in HEK293T cells; type: cell-based; set-up: expressed in transfected cells; host or cells: HEK293T
mouse pancreatic islets = test: Fluorescent TMR-ligand uptake in mouse pancreatic islets; type: cell-based; conditions: 100 nM, 30 min, confocal imaging, n = 2
Method: Mouse pancreatic islets were isolated and left to recover overnight before being immobilised with Matrigel onto glass-bottom Mattek dishes and stimulated with 100 nM of the indicated TMR-modified agonist for 30 min. Z stacks were recorded for the whole islet volume on a Zeiss LSM780 inverted confocal microscope with a 20× air objective and 1 μm of separation between optical slices.

[4] = target: GLP-1R-SmBiT (glucagon-like peptide-1 receptor) (UniProt P43220)
Chain of GLP-1R-SmBiT (glucagon-like peptide-1 receptor) (P43220 24-463): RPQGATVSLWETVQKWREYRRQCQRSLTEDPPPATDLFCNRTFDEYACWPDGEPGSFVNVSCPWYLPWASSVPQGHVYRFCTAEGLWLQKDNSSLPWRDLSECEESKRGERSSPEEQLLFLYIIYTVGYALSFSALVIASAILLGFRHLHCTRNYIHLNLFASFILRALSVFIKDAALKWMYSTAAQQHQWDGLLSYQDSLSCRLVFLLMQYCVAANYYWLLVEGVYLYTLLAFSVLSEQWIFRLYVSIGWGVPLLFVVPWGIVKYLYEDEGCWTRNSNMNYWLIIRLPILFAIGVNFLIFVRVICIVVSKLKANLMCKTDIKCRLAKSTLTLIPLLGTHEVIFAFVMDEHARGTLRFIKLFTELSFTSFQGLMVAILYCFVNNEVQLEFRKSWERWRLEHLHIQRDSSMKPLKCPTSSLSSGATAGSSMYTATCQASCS

[5] = target: GLP-1R-SmBiT (glucagon-like peptide-1 receptor) (UniProt P43220); test: split reporter (BiFC, NanoBiT); HEK293T cells co-transfected with receptor-SmBiT and LgBiT-mini-G or LgBiT-β-arrestin-2; in HBSS with furimazine, 37 °C; 5 min baseline, then peptide agonist added and luminescence recorded for 30 min; K@[max] from one-phase (mini-Gs) or bi-exponential (β-arrestin-2) fits at a single maximal agonist concentration
[6] = target: GCGR-SmBiT (glucagon receptor) (UniProt P47871); test: as above
Huh7-GCGR cells = test: Fluorescent TMR-ligand internalisation in Huh7-GCGR cells (high content imaging); type: cell-based, human; conditions: 100 nM, 30 min, n = 4
Method: Huh7-GCGR cells were seeded in black clear-bottom plates coated with 0.1% poly-D-lysine and assayed 24 h later. Then 100 nM of fluorescent TMR-conjugated agonist or vehicle was applied for 30 min. The cells were then washed with cold HBSS and incubated for 5 min in cold acetic acid +150 mM of NaCl buffer at a pH of 2.9 to strip surface ligands. After a final wash, the cells were resuspended in HBSS and the fluorescent ligand uptake was measured and quantified by high content imaging as described in Section 2.9.

Chain of GCGR-SmBiT (glucagon receptor) (P47871 26-477): as the sequence (P47871 26-477) above
Chain of GCG-H3 (peptide) (peptide): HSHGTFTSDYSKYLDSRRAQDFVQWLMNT

Glucagon-AIB2 (GCG-AIB2) (peptide)
Emax of mini-Gs recruitment to GCGR-SmBiT (NanoBiT, HEK293T, AUC over 30 min) [1]: 54 % max | Emax of β-arrestin-2 recruitment to GCGR-SmBiT (NanoBiT, HEK293T, AUC over 30 min) [1]: 25 % max | pEC50 of mini-Gs recruitment to GCGR-SmBiT (NanoBiT, HEK293T, AUC over 30 min) [1]: 6.7 pEC50 (M) | pEC50 of β-arrestin-2 recruitment to GCGR-SmBiT (NanoBiT, HEK293T, AUC over 30 min) [1]: 6.2 pEC50 (M)

GCG-H3 (peptide)
Emax of mini-Gs recruitment to GCGR-SmBiT (NanoBiT, HEK293T, AUC over 30 min) [1]: 66 % max | Emax of β-arrestin-2 recruitment to GCGR-SmBiT (NanoBiT, HEK293T, AUC over 30 min) [1]: 54 % max | pEC50 of mini-Gs recruitment to GCGR-SmBiT (NanoBiT, HEK293T, AUC over 30 min) [1]: 6.8 pEC50 (M) | pEC50 of β-arrestin-2 recruitment to GCGR-SmBiT (NanoBiT, HEK293T, AUC over 30 min) [1]: 6.3 pEC50 (M)

CSCC[C@H](NC(=O)[C@H](CC(C)C)NC(=O)[C@H](Cc1c[nH]c2ccccc12)NC(=O)[C@H](CCC(N)=O)NC(=O)[C@@H](NC(=O)[C@H](Cc1ccccc1)NC(=O)[C@H](CC(=O)O)NC(=O)[C@H](CCC(N)=O)NC(=O)[C@H](C)NC(=O)[C@H](CCCNC(=N)N)NC(=O)[C@H](CCCNC(=N)N)NC(=O)[C@H](CO)NC(=O)[C@H](CC(=O)O)NC(=O)[C@H](CC(C)C)NC(=O)[C@H](Cc1ccc(O)cc1)NC(=O)[C@H](CCCCN)NC(=O)[C@H](CO)NC(=O)[C@H](Cc1ccc(O)cc1)NC(=O)[C@H](CC(=O)O)NC(=O)[C@H](CO)NC(=O)[C@@H](NC(=O)[C@H](Cc1ccccc1)NC(=O)[C@@H](NC(=O)CNC(=O)[C@H](Cc1c[nH]cn1)NC(=O)C(C)(C)NC(=O)[C@@H](N)Cc1c[nH]cn1)[C@@H](C)O)[C@@H](C)O)C(C)C)C(=O)N[C@@H](CC(N)=O)C(=O)N[C@H](C(=O)O)[C@@H](C)O [GCG-AIB2H3] (H-H[Aib]HGTFTSDYSKYLDSRRAQDFVQWLMNT-OH)
Emax (GCGR [2]; HEK-293T, read-out: GCGR Mini-Gs Emax): 74 ± 5% | EC50 (GCGR [2]; read-out: GCGR Mini-Gs pEC50 (converted)): 100 nM | Emax (GCGR [3]; HEK-293T, read-out: GCGR β-arrestin-2 Emax): 53 ± 2% | EC50 (GCGR [3]; read-out: GCGR β-arrestin-2 pEC50 (converted)): 251 nM

HXQGTFTSDYSKYLDAKRAQEFIEWLLAGHHHHHPS(K-TMR)W [SRB103Q-TMR, SRB103Q analogue conjugated to tetramethylrhodamine (TMR) close to the C-terminus]
TMR agonist uptake in mouse islets (mouse pancreatic islets): somewhat reduced compared to SRB103H-TMR

GLP-1-AIB2 (peptide)
Emax of mini-Gs recruitment to GLP-1R-SmBiT (NanoBiT, HEK293T, AUC over 30 min) [4]: 96 % max | Emax of β-arrestin-2 recruitment to GLP-1R-SmBiT (NanoBiT, HEK293T, AUC over 30 min) [4]: 68 % max | pEC50 of mini-Gs recruitment to GLP-1R-SmBiT (NanoBiT, HEK293T, AUC over 30 min) [4]: 7.9 pEC50 (M) | pEC50 of β-arrestin-2 recruitment to GLP-1R-SmBiT (NanoBiT, HEK293T, AUC over 30 min) [4]: 7.7 pEC50 (M)

GCG-AIB2H3 (peptide)
Emax of mini-Gs recruitment to GCGR-SmBiT (NanoBiT, HEK293T, AUC over 30 min) [1]: 74 % max | Emax of β-arrestin-2 recruitment to GCGR-SmBiT (NanoBiT, HEK293T, AUC over 30 min) [1]: 53 % max | pEC50 of mini-Gs recruitment to GCGR-SmBiT (NanoBiT, HEK293T, AUC over 30 min) [1]: 7 pEC50 (M) | pEC50 of β-arrestin-2 recruitment to GCGR-SmBiT (NanoBiT, HEK293T, AUC over 30 min) [1]: 6.6 pEC50 (M)

LgBiT-mini-Gs (domain or fragment)
K@[max] with GLP-1-AIB2 (association rate constant at maximal agonist stimulation) [5]: 0.21 min⁻¹ | K@[max] with SRB103H (association rate constant at maximal agonist stimulation) [5]: 0.93 min⁻¹ | K@[max] with SRB103Q (association rate constant at maximal agonist stimulation) [5]: 0.7 min⁻¹ | K@[max] with GCG (association rate constant at maximal agonist stimulation) [6]: 0.17 min⁻¹ | K@[max] with GCG-AIB2 (association rate constant at maximal agonist stimulation) [6]: 0.11 min⁻¹ | K@[max] with GCG-AIB2H3 (association rate constant at maximal agonist stimulation) [6]: 0.13 min⁻¹ | K@[max] with GCG-H3 (association rate constant at maximal agonist stimulation) [6]: 0.13 min⁻¹ | K@[max] with SRB103H (association rate constant at maximal agonist stimulation) [6]: 0.14 min⁻¹ | K@[max] with SRB103Q (association rate constant at maximal agonist stimulation) [6]: 0.13 min⁻¹

HXHGTFTSDYSKYLDAKRAQEFIEWLLAGHHHHHPS(K-TMR)W [SRB103H-TMR, SRB103H analogue conjugated to tetramethylrhodamine (TMR) close to the C-terminus]
TMR-ligand uptake in Huh7-GCGR cells (Huh7-GCGR cells): greater uptake
